Assay results from the nanobody polyreactivity screen of Harvey et al. (2022).

Assay: yeast display, Sf9 membrane polyspecificity reagent, FACS + sequencing; frameworks hold sequencing errors
Summary of the method: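 Genes from sorted yeast were amplified by colony PCR, read by MiSeq 2 × 250 sequencing and filtered on CDR length. These cells carried a synthetic nanobody library in Saccharomyces cerevisiae BJ5465 and were sorted by FACS into low and high (top ~1%) gates on anti-HA and streptavidin fluorescence. Polyreactivity is labelled according to the gate of origin.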

Row | Sequence | polyreactivity (PSR sort gate)
1 | QVQLVESGGGLVQAGGSLSLSCAASGSIFPHYAMGWYRQAPGKERELVAAISRGGSTNYADSVKGRFTISRDNAKNTVYLQMISLKPEDTAVYYCNARVYTKDYKRYDYWGQGTQVTVSS | high polyreactivity
2 | QVQLVESGGGLVQAGGSLRLSCAASGSIFKYYAMGWYRQAPGKERELVAAISYSGGRTYYADSVKGRFTISRDNAKNTVYLQMNSLKPEDTAVYYCNAELYPWPGVVRYNYWGQGTQVTVSS | high polyreactivity
3 | QVQLVESGGGLVQAGGSLRLSCAASGSTFIPNTMGWYRQEPGKERELVAAISRRGGSTNYADSVKGRFTISRDNAKYTVYLQMNSLKPEDTAVYYCAAVSPRRYRYDYWGQGTQVTVSS | low polyreactivity
4 | QVQLVESGGGLVQAGGSLRLSCAASGRTFRNYAMGWYRPAPGKERELVAAITWSGGSTYYADSVKGRFTISRDNAKNTVYLQMNSLKPEDTAVYYCNVRSYTRTYNYWGQGTQVTVSS | high polyreactivity
5 | QVQLVESGGGLVQAGGSLRLSCAASGFTFGRNAMGWYRQEPGKERELVATISKSGGSTYYADSVKGRFTISRDNAKNTVYVQMNSLKPEDTAVYYCADRSRRLPGDYWGQGTQVTVSS | low polyreactivity
6 | QVQLVESGGGLVQAGGSLRLSCAASGSILGLNVMGWYRQAPGTEREVVAAISRRGGSTYYADSVKGRFTISRDNAKNTVYLQMNSLKPEDTAVYYCAATRTARTMGYWGQGTQVTVSS | high polyreactivity
7 | QVQLVESWGGLVQAGGSLRLSCAASGRIFKLYAMGWYRQAPGKERELVAGINWSGGTTYYAESVKGRFTISRDNAKNTVYLQMNSLKPEDTAVYYCAARTRNGAGYYWGQGTQVTVSS | high polyreactivity
8 | QVQLVESGGGLVQAGGSLRLSCAASGLIFYRYAMGWYRQAPGKERELVATISSGGSTNYADSVKGRFTISRDNAKNTVYLQMNSLKPEDTAVYYCAASRWLYYYLFEYWGQGTQGTVSS | high polyreactivity
9 | QVQLVESGGGLVQAGGSLRLSCAASGSIFNYYAMGWYRQAPGKEREFVAAISWRGGSTYYADSVKGRFTISRDNAKNTVYLQMNRLKPEDTAVYYCNARVYGVYRRRVNYWGQGTQVTVSS | high polyreactivity
10 | QVQLEESGGGLVHAGGSLRLSCAASGSTFRPYAMGWYRQAPGKERELVAAIRKIGGRTYYADSVKGRFTISRDNAKNTVYLQMNSLKPEDTAVYYCNKRIGGGVHAYNYWGQGTQVTVSS | low polyreactivity
11 | QVQLVESGGGLVQAGGSLRLSCAASGNILVSYTMGWSRQAPGKDTELVAAINSGGNTNYADSVKGRFTISRDNAKNTVYLQMNSLKPEDTAVYYCNAYTDSLWVYPFWIYRDYDDWGHGTQVTVSS | low polyreactivity
12 | QVQLVESGGGLVQAGGSLRLSCAASGYTFYFYAMGWSRQAPGKEREFVAAIRSSGGRTYYADSVKGRFTISRDNAKNTVYLQMNSLKPVDTAVYYCAAAGYYYSVDGAGPRYDYWGQGTQVTVSS | low polyreactivity
13 | QVQLVESGGGLVQAGGSLRLSCAASGSTFYTNAKGWYRQAPGKEREFVAAISWAGSSTYADSVKGRFTISRDNAKTTVYLQMHSLKPEDTAVYYCNADVLDGGYDYWGQGTQVTVSS | low polyreactivity
14 | QVQLVESGGGLVQAGGSLRLSCAASGRIFGHYAMGWYRQAPGKERELVAAIRYSAGRTYYAGSVKGRFTISRDNAKNTVYLQMNSLKPEDTAVYYCAKTSRYLTGGGDYWGQGTQVTVSS | high polyreactivity
15 | QVQLVESGGGLVQAGGSLRLSCAASGSTSDYYAMGWYRQAPGKERELVAAISWSGGSTYYADSVKGRFTISRDNAKNTVYLQMISLKPEDNAVYYCAAQHYNFSGPFEYWGQGTQVTVSS | low polyreactivity
16 | QVQLVESGGGLVQAGGSHRLSCAASGFTFVNNALGWYRQPPGKEREFVAPISSDGGSTYYADSVKGRFTMSRDNAKNTVYLQMNSLKPEDTAVYYCAKVYPYRTYDTSYYHYHYDSWGQGTQVTVSS | low polyreactivity
17 | QVQLVESGGGLVQAGGSLRLSCAASGSIFAVYAMGWYRQAPGKERELVASITNDGSTYADSVKGRFTISRDNAKNTVYLQINSQKPEDTAVYYCNADYLTYFTTFDYWGQGTQVTVSS | low polyreactivity
